Experimental data from the supplement of paper PMC10567573.

B1: ZNF263 (parent)
chain: LLRHQRIHTGERPYKCPECGKSFS

Variants of: B1
Assay: protein stability index of a GFP-peptide fusion (GPS, HEK-293T) (PSI 1-6); higher = more stable
Conditions: c terminus: a fixed tail appended
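Note: lentivirally expressed fusions sorted by FACS into six bins by GFP to DsRed ratio, PSI derived from sequencing read proportions per bin multiplied by bin number.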

Protein stability index of substitutions, site by site:
Y14: A 2.74 | N 2.39 | L 2.48 | E 2.85 | M 2.42 | W 2.35 | G 2.34 | I 2.23 | D 2.24 | R 1.94 | K 1.59 | H 2.13 | V 2.38 | S 1.95 | T 2.25 | Q 2.11 | C 3.63 | P 2.09 | F 2.64
K21: E 2.53 | P 2.61 | M 1.59 | D 2.38 | N 2.05 | C 2.11 | Y 2.19 | F 1.82 | R 2.01 | L 2.77 | I 1.68 | G 1.83 | Q 2.75 | A 2.93 | S 1.84 | T 2.16 | V 1.91 | H 2.82
R12: A 2.11 | S 2.11 | L 2.69 | K 2.43 | V 2.91 | Q 2.67 | H 2.67 | I 2.64 | T 2.45 | C 2.48 | M 2.08 | G 3.4 | D 1.93 | N 1.59 | E 2.71 | F 2.65 | Y 2.6 | W 1.7 | P 2.52
P13: H 1.64 | T 2.56 | A 3.1 | K 1.78 | W 2.83 | D 2.11 | R 1.72 | E 2.48 | M 2.5 | S 2.02 | I 1.87 | F 2.01 | G 2.36 | C 2.16 | Y 1.89 | N 2.69 | L 2.73 | V 2.54 | Q 3.02
S24: I 2.11 | C 3.14 | H 2.12 | G 3.65 | A 1.92 | L 2.43 | Y 2.25 | T 2.08 | W 2.59 | R 1.94 | F 2.01 | N 2.34 | Q 3.11 | M 2.28 | E 1.88 | K 2.07 | D 2.36 | V 2.62 | P 2.24
P17: C 2 | H 1.8 | R 2.6 | V 2.05 | F 1.94 | E 2.26 | G 2.88 | N 2.39 | Y 1.39 | Q 2.78 | K 2.15 | I 2.6 | W 1.74 | M 1.83 | S 1.66 | T 2.38 | D 2.19 | A 1.83 | L 1.91
S22: A 2.41 | Q 2.5 | T 2.23 | H 2.29 | C 2.37 | N 1.4 | I 2.88 | E 1.88 | F 2.2 | K 2.35 | G 2.65 | P 2.36 | V 2.98 | M 2.05 | R 2.4 | W 2.09 | Y 2.38 | D 1.63 | L 1.92
C16: T 3.4 | Q 3.2 | P 3.06 | I 2.77 | G 3.9 | R 3.74 | L 2.38 | D 3.46 | F 2.48 | V 2.16 | M 2.36 | A 3.17 | K 3.44 | S 2.73 | Y 2.12 | N 2.76 | W 3.15 | E 3.33 | H 3.04
E11: G 2.63 | M 1.99 | Y 1.88 | R 3.3 | W 2.01 | S 2.34 | P 2.39 | F 1.56 | V 2.56 | I 1.78 | K 2.04 | C 1.96 | Q 2.51 | H 2.7 | A 2.26 | D 2.34 | L 1.99 | N 2.32 | T 2.51
C19: G 3.3 | H 3.21 | L 2.15 | T 3.42 | P 2.87 | Y 2.45 | E 3.31 | V 3.08 | D 3.28 | S 2.45 | R 3.57 | W 1.66 | Q 3.3 | M 2.07 | I 1.81 | A 3.18 | K 3.08 | F 2.12
K15: E 2.66 | P 1.74 | T 1.97 | G 2.62 | L 1.98 | R 2 | C 2.16 | M 2.15 | S 2.48 | Q 2.46 | W 2.03 | A 2.52 | V 2.4 | I 2.46 | N 2.19 | F 2.41 | D 2.74 | H 2.29 | Y 2.17
G20: Q 1.86 | K 2.27 | M 2.13 | I 1.75 | T 2.17 | S 1.95 | E 1.66 | V 2.42 | Y 1.76 | C 1.87 | H 2.21 | R 1.79 | W 1.46 | A 2.05 | D 2.52 | F 2.99 | L 1.66 | N 2.35 | P 1.88
F23: E 2.38 | V 2.53 | H 3.64 | S 2.25 | D 3.13 | Y 2.79 | M 1.99 | R 1.93 | K 2.83 | A 2.87 | W 1.84 | Q 3.71 | I 2.51 | L 2.14 | T 2.59 | G 2.75 | C 3.29 | P 3.39 | N 2.68
E18: K 2.64 | Y 3.02 | L 2.24 | S 2.25 | Q 2.41 | I 2.42 | R 2.41 | A 2.25 | T 2.25 | F 2.48 | H 2.5 | W 3.24 | P 2.37 | V 2.15 | M 2.46 | G 2.3 | D 1.96 | N 2.24 | C 1.86
